Measured values reported in EP2360247A1.
Where “and” joins values, the source holds several entries; their conditions need not be identical. Identical values can stand only once.

How the values were obtained:
Experiment in all cases: cell-based or functional assay
[1] = biological target: Savinase® (subtilisin 309, BLSAVI) (B. Lentus) (UniProt P29600)
[2] = biological target: subtilisin 309 variant L217LP+S99SD+S99A (B. Lentus) (UniProt P29600)
[3] = biological target: subtilisin 309 variant L42LN (B. Lentus) (UniProt P29600)
[4] = biological target: subtilisin 309 variant S99D+S101R+S103A+V104I+G160S+A194P+V199M+V205I+*216aD (B. Lentus) (UniProt P29600)
[5] = biological target: subtilisin 309 variant S99D+S101R+S103A+V104I+G160S+A194P+V199M+V205I+*216aE (B. Lentus) (UniProt P29600)
[6] = biological target: subtilisin 309 variant S99SD+S99A+N155NA (B. Lentus) (UniProt P29600)
[7] = biological target: subtilisin 309 variant S99SD+S99A+N155ND (B. Lentus) (UniProt P29600)
[8] = biological target: subtilisin 309 variant S99SD+S99A+N155NR (B. Lentus) (UniProt P29600)
[9] = biological target: subtilisin 309 variant S99SD+S99A+S216SDP (B. Lentus) (UniProt P29600)

In the case of “trypsin inhibitor type IV-0 (Sigma T-1886) (from UniProt P10184 69-517)”, the Residual Activity (%) [1] is reported as < 5%, the Residual Activity (%) [2] is reported as 97% and the Residual Activity (%) [3] is reported as 69.2%. For the same substance, the Residual Activity (%) [4] was 24%, the Residual Activity (%) [5] was 25.4% and the Residual Activity (%) [6] was 7.4%. For the same substance, the Residual Activity (%) [7] was 10.7% and 7.1%, the Residual Activity (%) [8] was 6.5% and the Residual Activity (%) [9] was 35%.
